Columns and labels:
Assay in all cases: FRET or BRET; 2pFLIM-FRET in single dendritic spines of CA1 pyramidal neurons, organotypic hippocampal slices; train of two-photon glutamate uncaging (0.49 Hz, 30 pulses, sLTP protocol) without extracellular Mg^2+; room temperature (25–27 °C); 128 ms/frame; decay after the train fitted with a double exponential; T286A in slices of Camk2a^T286A knock-in mice
[1] = target: mEGFP-CaMKIIα (wildtype) (Rattus norvegicus) (UniProt P11275)
[2] = target: mEGFP-CaMKIIα^T286A (Rattus norvegicus) (UniProt P11275)
[3] = target: mEGFP-CaMKIIα^T305A/T306A (Rattus norvegicus) (UniProt P11275)

Substance: mCherry-CaM (from UniProt P0DP26 1-149) (natural protein; other documents disagree on this pair)
- dissociation time constant (tau fast, decay after the train) [1]: 3.2 s

Substance: mCherry-CaM (from UniProt P0DP26 1-149) (natural protein)
- dissociation time constant (tau fast, decay after the train) [2]: 1 s
- dissociation time constant (tau fast, decay after the train) [3]: 9.3 s

From PMC6592955
